This is an account of results in IntAct's records for PubMed 23736261.

The chains are these.
B1: Catenin beta-1 (Homo sapiens), P35222 (parent)
chain: MATQADLMELDMAMEPDRKAAVSHWQQQSYLDSGIHSGATTTAPSLSGKGNPEEEDVDTSQVLYEWEQGFSQSFTQEQVADIDGQYAMTRAQRVRAAMFPETLDEGMQIPSTQFDAAHPTNVQRLAEPSQMLKHAVVNLINYQDDAELATRAIPELTKLLNDEDQVVVNKAAVMVHQLSKKEASRHAIMRSPQMVSAIVRTMQNTNDVETARCTAGTLHNLSHHREGLLAIFKSGGIPALVKMLGSPVDSVLFYAITTLHNLLLHQEGAKMAVRLAGGLQKMVALLNKTNVKFLAITTDCLQILAYGNQESKLIILASGGPQALVNIMRTYTYEKLLWTTSRVLKVLSVCSSNKPAIVEAGGMQALGLHLTDPSQRLVQNCLWTLRNLSDAATKQEGMEGLLGTLVQLLGSDDINVVTCAAGILSNLTCNNYKNKMMVCQVGGIEALVRTVLRAGDREDITEPAICALRHLTSRHQEAEMAQNAVRLHYGLPVVVKLLHPPSHWPLIKATVGLIRNLALCPANHAPLREQGAIPRLVQLLVRAHQDTQRRTSMGGTQQQFVEGVRMEEIVEGCTGALHILARDVHNRIVIRGLNTIPLFVQLLYSPIENIQRVAAGVLCELAQDKEAAEAIEAEGATAPLTELLHSRNEGVATYAAAVLFRMSEDKPQDYKKRLSVELTSSLFRTEPMAWNETADLGLDIGAQGEPLGYRQDDPSYRSFHSGGYGQDALGMDPMMEHEMGGHHPGADYPVDGLPDLGHAQDLMDGLPPGDSNQLAWFDTDL

The variants in one experiment derive from B1. As to conditions: with mlp3b_human MAP1LC3B.
In the case of W504A;I507A, the “effect of a mutation on the interaction” value is reported as “disrupting interaction”.

In a further experiment the parent is B1. As to conditions: with mlp3b_human MAP1LC3B. The source holds these as a separate data set.
Take W504A;I507A: the “effect of a mutation on the interaction” value was “decreasing interaction”.
